Results on 78 sequences are retold here after the supplement of paper PMC10724198.

± gives the standard deviation of the averaged measurements.
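Further: PSI is a weighted mean of sequencing reads over stability bins, variants kept only with over 10 reads, mCherry proximal and sfGFP distal, peptide attached via GGGS linker.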

The data set relates to Saccharomyces cerevisiae. As to the kind of experiment: protein stability index of tFT-peptide fusion (C-terminal peptide) (PSI (0-1 scale)); higher = more stable (slower turnover). The conditions noted are these: genetic background: wild type; temperature: 30 C. As for the experimental part:
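Multiplexed protein stability (MPS) profiling in S. cerevisiae. Random 12-aa peptides (tFT-X12 library) are fused to the C-terminus of a sfGFP-mCherry tandem fluorescent timer, after mCherry and a GGGS linker. Cells are FACS-sorted into 8 mCherry/sfGFP bins and deep-sequenced. The protein stability index (PSI) is the read-weighted bin average, scaled from 0 (unstable) to 1 (stable). Only peptides with >10 reads are reported; cells were grown at 30 °C in SC-His with glucose.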
The sequence GLRLFAPRWPQA came in with a protein stability index of 0.713 ± 0.058. Next, GLRLHVQCFGRV: 0.699 ± 0.024; GLSGSPIPFIRL: 0.731 ± 0.021. Next, GLSSAVSPSFGR: 0.598 ± 0.017. Under GLSSFIGRRGRR stands 0.713 ± 0.013; under GLSSRQHPAPTT, 0.693 ± 0.05.

The sequence GLSWSSGGLMVF came in with a protein stability index of 0.615 ± 0.037. Under GLSYPPLQFYYH stands 0.689 ± 0.012. Under GLVGCDPPPPAF stands 0.72 ± 0.04. In turn, GLVGSGFVCIGM yielded a protein stability index of 0.697 ± 0.15. Under GLVRGGWGTVGG stands 0.805 ± 0.24; under GLVVGGLRPKRV, 0.68 ± 0.004. Under GLWEVVEITRRE stands 0.684 ± 0.049. Under GMDGWGWGGSVV stands 0.706 ± 0.026; under GMGWGTVGDING, 0.709 ± 0.024. Regarding GMIRDKEVVGGG, the protein stability index was determined as 0.651 ± 0.11. Under GMQPRGVRRATS stands 0.728 ± 0.023. GMRGGKGKPAET displayed a protein stability index of 0.728 ± 0.0096.

The sequence GMSSWNSISFPI yielded a protein stability index of 0.751 ± 0.073.

With GNNPDHAYTSNI, the protein stability index was 0.682 ± 0.07. The sequence GNRARRSGITRF came in with a protein stability index of 0.809 ± 0.15. GNTNIYIVMRES showed a protein stability index of 0.5935 ± 0.0031. Next, GNTPERVQRRWE: 0.632 ± 0.086; GPCFKSQPKSPI: 0.6807 ± 0.0024. GPCRICNERSLI: the protein stability index stood at 0.613 ± 0.0062. Next, GPCSLVSLFAGD: 0.697 ± 0.017; GPEGSDMIDPWK: 0.666 ± 0.13; GPEVRPTLTHNE: 0.623 ± 0.018. Next, GPGPRAASADCP: 0.728 ± 0.08. Under GPLPPLHPSPTI stands 0.725 ± 0.016; under GPPDLSSSRVLL, 0.718 ± 0.11; under GPPPPPPLPQLW, 0.77 ± 0.037. For GPPRTRRRSARG, the protein stability index is 0.668 ± 0.0068. Next, GPPSVSPPFSPS: 0.7829 ± 0.0016; GPRAGFRRPELE: 0.733 ± 0.043; GPRVILALLSRR: 0.6842 ± 0.0067.

The sequence GPSHPPHLPPPV registered a protein stability index of 0.6855 ± 0.001. On to GPSIRWWGGGRR, for which the protein stability index is 0.731 ± 0.049.

The sequence GPSPFHPPPPER gave a protein stability index of 0.554 ± 0.0094. Under GPSVGWFPSGWS stands 0.74212 ± 0.00021. Under GPVTSFAPVAVS stands 0.617 ± 0.038; under GPVVGGWSVVSK, 0.655 ± 0.058.

Consider GPYDLVSAPCLG, for which the protein stability index was 0.753 ± 0.057. Under GQAPRARKTSTD stands 0.678 ± 0.014; under GQAWVEITARDS, 0.748 ± 0.075. Next, GQGRGERRRVRP: 0.653 ± 0.075; GQGSSRKSTSVK: 0.7114 ± 0.0041; GQHSCTRVDTQQ: 0.734 ± 0.011. Next, GQLMRPSFSVSC: 0.658 ± 0.009. Sequence GQSRQKNEKKIK yielded a protein stability index of 0.687 ± 0.0091. Next, GQSSVGCYNYRR: 0.676 ± 0.036. Next, GRAGLDLACWWK: 0.709 ± 0.03; GRARWVGGEGVW: 0.706 ± 0.025. As for GRCGRFVGAAWG, the protein stability index was determined as 0.741 ± 0.17.

In the case of GRCLRITMACYI, the protein stability index stood at 0.646 ± 0.035.

Sequence GREGAADGWACG showed a protein stability index of 0.652 ± 0.055. Under GREREKGGKRIE stands 0.629 ± 0.047; under GRFRQTVTGEGW, 0.669 ± 0.087. Under GRGAGQAGKKKI stands 0.631 ± 0.0073; under GRGCLGSILVFL, 0.633 ± 0.047; under GRGEKKREVDGG, 0.69 ± 0.065. For GRGGGGGAVGEW, the protein stability index is 0.683 ± 0.037. Next, GRGGWPPWFKHK: 0.712 ± 0.033; GRGLGGWARGWW: 0.69008 ± 0.00035; GRGPRTTKAGRG: 0.7 ± 0.03. GRGRVAAGFVAR had a protein stability index of 0.737 ± 0.039.

Consider GRGTLLGLGLYA, for which the protein stability index was found to be 0.692 ± 0.078. With GRGVGACLVVVV, the protein stability index came out at 0.523 ± 0.022. Under GRGVGCVRRVGG stands 0.676 ± 0.059; under GRGWGGALGWCG, 0.668 ± 0.013. Under GRIFAGCGGGGV stands 0.705 ± 0.06.

GRKKRGRKGEEK: the protein stability index is 0.631 ± 0.035. Under GRKPGGGRRAPE stands 0.666 ± 0.028. GRLFCAALPLPL displayed a protein stability index of 0.666 ± 0.089. Next, GRLGSSRIVGKS: 0.692 ± 0.017; GRLQRKQRKYKA: 0.719 ± 0.0083; GRPGISESGIIG: 0.7103 ± 0.0071. Next, GRPTRRHRGRLV: 0.709 ± 0.028.
